{
  "source": "paper PMC11481913",
  "about": "“Rational design of a flavoenzyme for aerobic nicotine catabolism” (mBio, 2024)",
  "molecular_target": "the molecule itself",
  "experiment": "SEC; Superdex 200 Increase 10/300 GL; molecular weight by elution (Fig. S2)",
  "data": [
    {"protein": "PnaoΔN30 (residues 31–497) (enzyme, Pseudomonas putida S16, UniProt F8G0P1 31-496, looked up, Pnao, flavin-dependent pseudooxynicotine oxidase of Pseudomonas putida S16; N-terminal truncation of 30 residues, residues 31-497; Cloned in pET-28a between NcoI and XhoI, which probably gives a C-terminal His6 tag; also called pseudooxynicotine amine oxidase; source: E. coli BL21(DE3), purified (Ni2+-NTA, size-exclusion chromatography)) IASQLLTLSAPAEAAVKTNVGPSRAGVGYDVIVIGGGFAGVTAAREASRSGLKTLILEGRSRLGGRTFTSKLQNQKVELGGTWVHWTQPNVWTEIMHYGLEVEETVGLANPETVIWVTEDNVKRAPAAEAFEIFGSACNEYYKEARNIYPRPFEPFFERKKLQHVDGLSAADYLEKLPLTREQKDMMDSWLSGNGHNYPETIAYSEIMRWFALSNFNMPTMFDSIARYKIKTGTHSLLEAIMADGNSEVKLSTPVTKVNQDKDKVTVTTEDGVFTASAVIVAVPINTLHDIEYSPKLSAAKVDMGSQRHAGAGVKGYIRVKQNVGNVMTYAPARNKLTPFTSVFTDHVDESGTLLIAFSADPKLIDINDIKAVEKALQPLLPGVEVTASYGYDWNLDPFSKGTWCTYRPNQTTRYLTELQKREGRLFFAGSDMANGWRGFIDGAIENGREVGHQVATYLKRENDNA", "values": [
      {"measurement": "stoichiometry N", "value": 2}
    ]}
  ]
}
